{
  "source": "paper PMC11779849",
  "about": "“Outside-in engineering of cadherin endocytosis using a conformation strengthening antibody” (Nature Communications, 2025)",
  "binders": {"B1": {"name": "CQY684 Fab (Fab, V domains shown)", "VH": "QVQLQQSGPGLVKPSQTLSLTCAISGDSVSSQSAAWNWIRQSPSRGLEWLGRIYYRSKWYNDYALSVKSRITINPDTSKNQFSLQLNSVTPEDTAVYYCARGEGYGREGFAIWGQGTLVTVSS", "VL": "DIQMTQSPSSLSASVGDRVTITCRASQTISNTLAWYQQKPGKAPKLLIYAASNLQSGVPSRFSGSGSGTDFTLTISSLQPEDFATYYCQQYLSWFTFGQGTKVEIK", "notes": "variable region cloned into a human IgG Fab backbone; the constant parts of the GenScript human IgG Fab backbone may differ from those in PDB 6ZTR; also called CQY Fab; antibody part of the antibody-drug conjugate PCA062; source: recombinantly generated by GenScript"}},
  "key": {"[1]": {"target": "T1, human P-cadherin W2A mutant ectodomain (EC1-5) (Homo sapiens, UniProt P22223, point mutant, biotin on the Avi-tag (BirA enzyme))", "T1 construct": "signal peptide in the construct; Made with the Q5 site-directed mutagenesis kit from the WT ectodomain construct; also called Pcad W2A; W2A Pcad; source: Expi293 suspension cells, transfected, purified from conditioned media (Ni-NTA), biotinylated with BirA; not shown: Avi-tag, C-terminal, kept", "T1 sequence (P22223 whole entry, looked up, stated change not applied, the tested form may be a part)": "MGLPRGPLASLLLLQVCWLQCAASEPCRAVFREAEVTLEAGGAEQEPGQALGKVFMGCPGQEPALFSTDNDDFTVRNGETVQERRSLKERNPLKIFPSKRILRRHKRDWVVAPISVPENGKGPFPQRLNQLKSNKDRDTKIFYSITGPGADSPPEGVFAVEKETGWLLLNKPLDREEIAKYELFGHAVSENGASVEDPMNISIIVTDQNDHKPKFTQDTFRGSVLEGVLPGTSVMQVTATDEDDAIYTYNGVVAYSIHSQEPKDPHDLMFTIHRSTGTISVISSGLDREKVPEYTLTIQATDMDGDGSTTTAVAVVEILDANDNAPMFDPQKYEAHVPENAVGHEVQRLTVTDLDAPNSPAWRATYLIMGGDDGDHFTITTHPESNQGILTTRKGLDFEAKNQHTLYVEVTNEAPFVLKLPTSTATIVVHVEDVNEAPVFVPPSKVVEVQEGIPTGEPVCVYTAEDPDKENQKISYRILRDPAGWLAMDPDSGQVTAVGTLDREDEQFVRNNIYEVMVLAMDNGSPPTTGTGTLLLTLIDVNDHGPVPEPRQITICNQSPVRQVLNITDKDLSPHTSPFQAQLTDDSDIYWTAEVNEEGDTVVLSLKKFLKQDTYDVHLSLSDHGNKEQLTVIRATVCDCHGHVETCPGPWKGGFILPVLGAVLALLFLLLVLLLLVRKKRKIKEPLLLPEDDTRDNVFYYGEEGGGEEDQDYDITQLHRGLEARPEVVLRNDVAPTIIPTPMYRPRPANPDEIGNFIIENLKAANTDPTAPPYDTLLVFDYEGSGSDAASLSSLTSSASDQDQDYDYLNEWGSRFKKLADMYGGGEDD", "test": "far-Western, overlay or dot blot; Western blot: purified Pcad ectodomains boiled in SDS-PAGE sample buffer with 2-mercaptoethanol, run on gels, transferred to PVDF; probed with CQY684", "conditions": "both partners purified"}, "[2]": {"target": "T2, wild-type human P-cadherin ectodomain (EC1-5) (human, UniProt P22223, biotin on the Avi-tag (BirA enzyme))", "T2 construct": "signal peptide in the construct; human P-cadherin (placental cadherin), complete extracellular region EC1-5, ectodomain (1-654); Cloned into pcDNA3.1(+); residue numbers W2, K14 count on the mature protein; also called Pcad WT; WT Pcad; source: Expi293 suspension cells, transfected, purified from conditioned media (Ni-NTA), biotinylated with BirA; not shown: Avi-tag, C-terminal, kept", "T2 sequence (P22223 108-654)": "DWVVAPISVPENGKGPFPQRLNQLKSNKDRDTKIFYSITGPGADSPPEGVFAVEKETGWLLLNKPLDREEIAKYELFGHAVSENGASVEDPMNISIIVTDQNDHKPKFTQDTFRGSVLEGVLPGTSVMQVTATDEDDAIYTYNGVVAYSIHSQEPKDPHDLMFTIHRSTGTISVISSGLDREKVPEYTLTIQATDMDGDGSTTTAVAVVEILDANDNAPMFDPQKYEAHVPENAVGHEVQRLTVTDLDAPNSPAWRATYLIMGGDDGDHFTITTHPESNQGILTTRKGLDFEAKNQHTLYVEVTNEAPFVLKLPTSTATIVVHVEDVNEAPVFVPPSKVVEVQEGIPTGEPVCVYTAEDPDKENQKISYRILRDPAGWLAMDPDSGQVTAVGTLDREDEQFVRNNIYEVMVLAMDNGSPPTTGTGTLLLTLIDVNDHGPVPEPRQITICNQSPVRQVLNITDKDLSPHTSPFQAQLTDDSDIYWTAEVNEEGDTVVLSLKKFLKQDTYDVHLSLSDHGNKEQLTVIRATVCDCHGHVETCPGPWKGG", "test": "single-molecule AFM force spectroscopy; as the -CQY experiment but with 40 nM CQY684 Fab in the buffer (+CQY); Pcad EC1-5 on cantilever and substrate; 1 µm/s; Tris buffer pH 7.5 with 2.5 mM CaCl2", "conditions": "both partners purified"}},
  "data": [
    {"binder": "B1", "values": [
      {"measurement": "binding result", "setting": "[1]", "result": "binds"},
      {"measurement": "binding result", "setting": "[2]", "result": "binds"}
    ]}
  ]
}
